Among the data in article PMC5109225 are TYLCV transmission rate to tomato test plants (one insect/plant) by whiteflies fed anti-CypB antibody (2 μg/μl in 25% sucrose, 24 h) before virus acquisition; control fed 25% sucrose: 60% and TYLCV transmission rate to tomato test plants (one insect/plant) by whiteflies fed the Cyp inhibitor Cyclosporin A (2 μg/μl in 25% sucrose, 24 h) before virus acquisition; control fed 25% sucrose: 60% values, retold here.

In assay [1] the target is Bemisia tabaci B Cyclophilin B protein (Bemisia tabaci B (endogenous in whitefly adults)).
Assay [2] has the same target. The source holds these as a separate data set.

“Tomato yellow leaf curl virus coat protein (in virions) (natural protein)” came in with a TYLCV transmission rate to tomato test plants (one insect/plant) by whiteflies fed anti-CypB antibody (2 μg/μl in 25% sucrose, 24 h) before virus acquisition; control fed 25% sucrose: 60% in assay [1] of 17%. For the same substance, the TYLCV transmission rate to tomato test plants (one insect/plant) by whiteflies fed the Cyp inhibitor Cyclosporin A (2 μg/μl in 25% sucrose, 24 h) before virus acquisition; control fed 25% sucrose: 60% in assay [2] turned out to be 27%.
